# Reference: US20080044360A1 (COLLAGEN MEDICAL, published 2008)
# Bridge positions count the residues as written; N and C are the ends. Square brackets hold non-standard residues; d marks the D form. Primed or numbered codes have the meaning given here. Side chains are listed from the residue outwards. Ends that are not written are not given here. * marks the point of attachment. Gd^D = GdDOTAGA (gadolinium DOTAGA chelate); Tyr(3-Cl) = N[C@@H](Cc1ccc(O)c(Cl)c1)C(=O)O; Tyr(3-I) = N[C@@H](Cc1ccc(O)c(I)c1)C(=O)O; Phe(3-OMe) = COc1cccc(C[C@H](N)C(=O)O)c1; Phe(4-NH2) = Nc1ccc(C[C@H](N)C(=O)O)cc1; Dmt = Cc1cc(O)cc(C)c1C[C@H](N)C(=O)O; 1,4 AMB(Gd^T) = not defined here; NMeA = CN[C@@H](C)C(=O)O; Gd^G = not defined here; Gd^T″ = GdDTPA-thiourea; NH(CH2)6NH2 = NCCCCCCN*; AEEA = NCCOCCOCC(=O)O
# Tests used:
# [1] = biological target: T1, human collagen type I, acid soluble, extracted from placenta (Sigma C7774) (human, UniProt P02452 162-1218; P08123 80-1119); assay: dried collagen assay
# T1 construct: tissue extract, gelled and dried in wells; also called dried human collagen; h-Collagen
# T1 sequence (P02452 162-1218 limits assumed, chain 1 of 2): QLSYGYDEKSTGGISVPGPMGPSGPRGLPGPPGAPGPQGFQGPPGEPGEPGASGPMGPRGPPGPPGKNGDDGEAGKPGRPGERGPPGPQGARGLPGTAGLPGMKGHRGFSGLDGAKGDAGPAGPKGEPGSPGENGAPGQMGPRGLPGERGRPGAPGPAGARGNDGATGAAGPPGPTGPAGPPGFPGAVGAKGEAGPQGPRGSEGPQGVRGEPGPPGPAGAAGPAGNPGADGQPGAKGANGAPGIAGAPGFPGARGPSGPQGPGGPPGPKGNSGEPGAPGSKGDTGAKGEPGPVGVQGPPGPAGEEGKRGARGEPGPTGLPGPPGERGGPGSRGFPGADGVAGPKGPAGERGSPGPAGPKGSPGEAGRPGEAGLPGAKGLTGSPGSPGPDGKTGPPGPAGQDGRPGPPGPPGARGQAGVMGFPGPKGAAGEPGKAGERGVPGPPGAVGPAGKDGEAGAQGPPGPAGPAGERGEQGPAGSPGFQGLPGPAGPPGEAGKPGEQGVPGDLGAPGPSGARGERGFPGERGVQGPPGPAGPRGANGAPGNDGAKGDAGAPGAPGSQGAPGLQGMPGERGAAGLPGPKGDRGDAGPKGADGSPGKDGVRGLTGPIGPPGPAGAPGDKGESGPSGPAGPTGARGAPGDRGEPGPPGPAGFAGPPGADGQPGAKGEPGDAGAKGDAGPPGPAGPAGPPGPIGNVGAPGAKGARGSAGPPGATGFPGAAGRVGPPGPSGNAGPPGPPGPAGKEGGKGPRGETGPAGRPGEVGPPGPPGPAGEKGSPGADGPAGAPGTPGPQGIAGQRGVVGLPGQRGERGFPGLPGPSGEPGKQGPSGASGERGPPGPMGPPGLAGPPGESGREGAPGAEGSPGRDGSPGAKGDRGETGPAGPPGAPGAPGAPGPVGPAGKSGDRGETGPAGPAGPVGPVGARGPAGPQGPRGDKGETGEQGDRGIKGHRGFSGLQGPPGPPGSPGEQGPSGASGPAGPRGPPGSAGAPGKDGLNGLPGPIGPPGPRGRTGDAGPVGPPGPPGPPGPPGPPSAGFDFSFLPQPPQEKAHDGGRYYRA
# T1 sequence (P08123 80-1119 limits assumed, chain 2 of 2): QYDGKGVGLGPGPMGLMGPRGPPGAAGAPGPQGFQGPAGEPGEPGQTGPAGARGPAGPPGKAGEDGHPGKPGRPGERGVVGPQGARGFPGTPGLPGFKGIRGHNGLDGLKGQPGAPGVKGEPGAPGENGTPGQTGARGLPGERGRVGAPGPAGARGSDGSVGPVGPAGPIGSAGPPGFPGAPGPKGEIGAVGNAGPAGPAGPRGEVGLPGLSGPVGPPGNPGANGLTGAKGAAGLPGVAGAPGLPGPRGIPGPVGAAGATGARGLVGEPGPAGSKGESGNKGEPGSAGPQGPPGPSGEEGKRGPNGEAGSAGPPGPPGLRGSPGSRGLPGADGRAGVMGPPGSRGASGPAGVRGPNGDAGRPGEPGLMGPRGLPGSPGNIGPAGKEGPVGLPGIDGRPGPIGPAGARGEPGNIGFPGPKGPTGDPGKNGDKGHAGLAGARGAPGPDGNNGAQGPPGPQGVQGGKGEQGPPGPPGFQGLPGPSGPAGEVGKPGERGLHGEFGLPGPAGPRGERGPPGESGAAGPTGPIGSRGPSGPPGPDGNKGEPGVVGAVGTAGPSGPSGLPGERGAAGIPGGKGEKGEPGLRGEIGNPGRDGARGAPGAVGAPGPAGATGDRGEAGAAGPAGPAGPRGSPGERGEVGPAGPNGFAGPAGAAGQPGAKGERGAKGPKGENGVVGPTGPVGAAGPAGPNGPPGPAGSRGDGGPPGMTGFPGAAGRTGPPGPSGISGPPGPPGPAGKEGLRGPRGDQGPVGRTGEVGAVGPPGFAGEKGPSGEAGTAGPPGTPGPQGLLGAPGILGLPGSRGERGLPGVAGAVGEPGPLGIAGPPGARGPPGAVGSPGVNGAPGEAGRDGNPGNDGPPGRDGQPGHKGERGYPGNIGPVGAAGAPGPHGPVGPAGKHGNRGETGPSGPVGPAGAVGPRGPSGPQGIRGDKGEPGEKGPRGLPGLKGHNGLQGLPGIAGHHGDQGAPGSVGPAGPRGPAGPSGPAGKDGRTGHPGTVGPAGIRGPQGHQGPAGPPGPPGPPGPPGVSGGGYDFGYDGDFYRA
# [2] = biological target: T2, rat collagen, acid soluble, type I, rat tail (Upstate 08-115) (rat, UniProt P02454 152-1207; P02466 86-1125); assay: dried collagen assay
# T2 construct: tissue extract, gelled and dried in wells; also called dried rat collagen
# T2 sequence (P02454 152-1207, chain 1 of 2): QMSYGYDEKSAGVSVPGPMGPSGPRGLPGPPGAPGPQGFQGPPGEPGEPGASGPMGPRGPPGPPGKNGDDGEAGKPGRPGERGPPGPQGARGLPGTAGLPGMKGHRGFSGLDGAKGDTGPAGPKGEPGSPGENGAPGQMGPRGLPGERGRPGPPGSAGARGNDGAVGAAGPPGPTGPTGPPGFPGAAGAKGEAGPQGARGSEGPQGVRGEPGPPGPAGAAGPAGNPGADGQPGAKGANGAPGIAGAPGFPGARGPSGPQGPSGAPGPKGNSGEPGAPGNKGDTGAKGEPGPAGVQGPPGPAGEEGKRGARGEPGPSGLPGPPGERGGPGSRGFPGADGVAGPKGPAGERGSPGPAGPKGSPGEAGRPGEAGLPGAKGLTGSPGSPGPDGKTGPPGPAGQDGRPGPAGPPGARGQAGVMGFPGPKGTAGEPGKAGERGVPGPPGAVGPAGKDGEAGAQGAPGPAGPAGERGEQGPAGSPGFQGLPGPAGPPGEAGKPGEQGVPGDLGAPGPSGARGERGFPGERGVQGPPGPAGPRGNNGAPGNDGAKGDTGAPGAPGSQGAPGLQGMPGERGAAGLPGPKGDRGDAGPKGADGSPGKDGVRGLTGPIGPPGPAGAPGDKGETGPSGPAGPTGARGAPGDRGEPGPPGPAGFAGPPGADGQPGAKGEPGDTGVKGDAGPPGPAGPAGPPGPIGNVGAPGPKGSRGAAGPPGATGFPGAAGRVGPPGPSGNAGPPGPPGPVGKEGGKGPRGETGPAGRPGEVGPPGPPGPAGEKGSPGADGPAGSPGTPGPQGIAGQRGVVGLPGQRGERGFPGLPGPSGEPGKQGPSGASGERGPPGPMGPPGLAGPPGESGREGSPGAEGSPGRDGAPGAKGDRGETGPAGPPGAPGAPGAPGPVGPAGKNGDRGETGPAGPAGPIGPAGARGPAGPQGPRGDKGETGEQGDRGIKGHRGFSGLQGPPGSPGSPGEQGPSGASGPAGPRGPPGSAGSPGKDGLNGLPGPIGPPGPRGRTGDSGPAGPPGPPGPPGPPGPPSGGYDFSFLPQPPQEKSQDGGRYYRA
# T2 sequence (P02466 86-1125, chain 2 of 2): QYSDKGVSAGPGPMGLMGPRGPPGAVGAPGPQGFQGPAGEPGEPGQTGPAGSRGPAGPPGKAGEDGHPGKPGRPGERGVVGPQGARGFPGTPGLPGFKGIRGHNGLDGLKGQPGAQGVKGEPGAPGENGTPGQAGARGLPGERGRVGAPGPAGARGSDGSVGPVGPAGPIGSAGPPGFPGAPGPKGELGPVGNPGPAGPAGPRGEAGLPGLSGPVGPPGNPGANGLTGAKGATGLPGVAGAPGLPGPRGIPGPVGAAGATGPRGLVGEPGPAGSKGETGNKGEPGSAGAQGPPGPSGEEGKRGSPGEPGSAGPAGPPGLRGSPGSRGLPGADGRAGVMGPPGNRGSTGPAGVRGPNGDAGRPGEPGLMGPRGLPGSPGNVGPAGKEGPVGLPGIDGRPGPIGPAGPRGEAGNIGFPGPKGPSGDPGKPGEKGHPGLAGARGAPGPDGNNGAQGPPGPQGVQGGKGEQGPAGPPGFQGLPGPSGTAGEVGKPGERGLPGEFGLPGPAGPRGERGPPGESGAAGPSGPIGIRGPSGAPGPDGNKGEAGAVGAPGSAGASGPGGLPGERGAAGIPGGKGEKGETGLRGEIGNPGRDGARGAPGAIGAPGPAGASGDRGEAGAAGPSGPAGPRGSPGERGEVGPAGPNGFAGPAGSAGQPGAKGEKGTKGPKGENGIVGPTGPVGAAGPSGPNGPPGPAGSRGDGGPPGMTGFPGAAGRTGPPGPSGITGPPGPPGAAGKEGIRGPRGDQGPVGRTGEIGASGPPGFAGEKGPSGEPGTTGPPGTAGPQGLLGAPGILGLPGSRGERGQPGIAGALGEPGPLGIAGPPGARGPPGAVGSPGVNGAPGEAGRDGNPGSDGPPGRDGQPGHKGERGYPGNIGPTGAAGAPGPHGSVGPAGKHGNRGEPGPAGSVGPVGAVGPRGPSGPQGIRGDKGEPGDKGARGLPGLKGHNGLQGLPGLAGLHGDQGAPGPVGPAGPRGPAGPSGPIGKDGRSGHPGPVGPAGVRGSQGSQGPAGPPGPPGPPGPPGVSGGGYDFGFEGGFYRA
% bound [1] [%],% bound [2] [%],Binder
60,29,{Gd^G}-GQWTCSGDAYTWHCAYE (disulfide 5-14 (inferred); not fully specified (C-terminus); reading uncertain) [Compound ID 820]
26,11,{Gd^T″}-GAWTCSGDEYTWHCNYE (disulfide 5-14 (inferred); not fully specified (C-terminus)) [Compound ID 830]
59,39,{Gd^T″}-GQWHCTTRFPHH[Phe(3-OMe)]CLYG (disulfide 5-14 (inferred)) [Compound ID 935]
31,22,{Gd^T″}-GQWHCTTRFPHHYCLYG (disulfide 5-14 (inferred); not fully specified (C-terminus)) [Compound ID 954]
94,93,{Gd^T″}-GK([Gly-Gd^T″])WHCYTK(Gd^T″)FPYHYCVYY (disulfide 5-14 (inferred)) [Compound ID 1011]
26,11,{Gd^T″}-GK([Gly-Gd^T″])WHCTTYFPHHVCLYG (disulfide 5-14 (inferred)) [Compound ID 965]
23,11,{Gd^T″}-GK([Gly-Gd^T″])WHCYK(Gd^T″)YFPHHYCLYG (disulfide 5-14 (inferred); not fully specified (C-terminus)) [Compound ID 991]
87,86,{Gd^T″}-GK([Gly-Gd^T″])WHCYTK(Gd^T″)FPHHYCVYY (disulfide 5-14 (inferred); not fully specified (C-terminus)) [Compound ID 979]
71,75,{Gd^T″}-GK([Gly-Gd^T″])WHCYTYFPHHYCVYG-{AEEA-Gd^T″} (disulfide 5-14 (inferred)) [Compound ID 998]
20,10,{Gd^T″}-GK([Gly-Gd^T″])WHCTTYFPTHYCLYG (disulfide 5-14 (inferred)) [Compound ID 962]
52,72,{Gd^T″}-GK([Gly-Gd^T″])WHCTTYFPHH[Tyr(3-Cl)]CLYG (disulfide 5-14 (inferred)) [Compound ID 952]
3,0,{Gd^T″}-GK([Gly-Gd^T″])WHCTTYFPHH[Phe(4-NH2)]CLYG (disulfide 5-14 (inferred); not fully specified (C-terminus)) [Compound ID 972]
64,57,{Gd^T″}-GK([Gly-Gd^T″])WHCTTYFPHYYCLYG (disulfide 5-14 (inferred)) [Compound ID 947]
75,68,"{Gd^T″}-GK([Gly-Gd^T″])WHCYTYFPHHYCVYG-{1,4 AMB(Gd^T)} (disulfide 5-14 (inferred); reading uncertain) [Compound ID 1000]"
16,13,{Gd^T″}-GQWHCTTRF[NMeA]HHYCLYG (disulfide 5-14 (inferred)) [Compound ID 938]
88,86,{Gd^T″}-GK([Gly-Gd^T″])WHCYTYFPYHYCLYG (disulfide 5-14 (inferred)) [Compound ID 964]
21,25,{Gd^T″}-GK([Gly-Gd^T″])WHCTTYFPHHYCL[Phe(4-NH2)](Gd^T″)G (disulfide 5-14 (inferred); not fully specified (C-terminus)) [Compound ID 971]
72,79,{Gd^T″}-GK([Gly-Gd^T″])WHCTTYFPHHYCLYY (disulfide 5-14 (inferred)) [Compound ID 949]
55,72,{Gd^T″}-GK([Gly-Gd^T″])WHCYTYFPHHYCLYG (disulfide 5-14 (inferred)) [Compound ID 943]

% bound [1] [%],% bound [2] [%],Binder
83,82,{Gd^T″}-GK([Gly-Gd^T″])WHCYTYFPHHYCVYY (disulfide 5-14 (inferred)) [Compound ID 945]
50,50,{Gd^T″}-GK([Gly-Gd^T″])WHCTTYFPHH[Dmt]CLYG (disulfide 5-14 (inferred)) [Compound ID 953]
85,80,{Gd^T″}-GK([Gly-Gd^T″])WHCTTK(Gd^T″)FPHHYCLYY (disulfide 5-14 (inferred); not fully specified (C-terminus)) [Compound ID 980]
53,54,{Gd^T″}-GK([Gly-Gd^T″])WHCTTYFPHHYCL[Phe(4-NH2)]G (disulfide 5-14 (inferred); not fully specified (C-terminus)) [Compound ID 970]
39,15,{Gd^T″}-GQWK(Gd^T″)CTTRFPHHYCLYG (disulfide 5-14 (inferred)) [Compound ID 956]
81,88,{Gd^T″}-GK([Gly-Gd^T″])WHCYTK(Gd^T″)FPHHYCK(Gd^T″)YY (disulfide 5-14 (inferred)) [Compound ID 1013]
25,17,{Gd^T″}-GK([Gly-Gd^T″])WHCTTYFPHWYCLYG (disulfide 5-14 (inferred)) [Compound ID 948]
59,62,{Gd^T″}-GK([Gly-Gd^T″])WYCTTYFPHHYCLYG (disulfide 5-14 (inferred); not fully specified (C-terminus)) [Compound ID 990]
91,84,{Gd^T″}-GK([Gly-Gd^T″])WHCYTYFPHHYCVYG (disulfide 5-14 (inferred)) [Compound ID 944]
42,39,{Gd^T″}-GQWHCK(Gd^T″)TRFPHHYCLYG (disulfide 5-14 (inferred)) [Compound ID 957]
58,68,{Gd^T″}-GQWHCYTLFPHHYCLYG (disulfide 5-14 (inferred)) [Compound ID 959]
71,68,{Gd^T″}-GK([Gly-Gd^T″])WHCTTYFPYHYCLYG (disulfide 5-14 (inferred)) [Compound ID 946]
85,92,{Gd^T″}-GK([Gly-Gd^T″])WHC[Tyr(3-I)]TYFPHHYCLYG (disulfide 5-14 (inferred); not fully specified (C-terminus)) [Compound ID 973]
72,61,{Gd^D}-K(Gd^D)K(Gd^D)WHCYTYFPHHYCVYG (disulfide 5-14 (inferred)) [Compound ID 1014]
65,66,{Gd^T″}-GK([Gly-Gd^T″])WHCYTYFPHHYCVYG-{NH(CH2)6NH2-Gd^T″} (disulfide 5-14 (inferred)) [Compound ID 999]
78,67,{Gd^T″}-GK([Gly-Gd^T″])WHCTTYFPHHYCVYG (disulfide 5-14 (inferred)) [Compound ID 942]
45,33,{Gd^T″}-GQWHCTTRFPK(Gd^T″)HYCLYG (disulfide 5-14 (inferred)) [Compound ID 958]
82,91,{Gd^T″}-GK([Gly-Gd^T″])WHCYTYFPYHYCVYG (disulfide 5-14 (inferred)) [Compound ID 963]
64,66,{Gd^T″}-GK([Gly-Gd^T″])WHCYTK(Gd^T″)FPHHYCVYG (disulfide 5-14 (inferred); not fully specified (C-terminus)) [Compound ID 978]
